Results: PMC11196582 (Scientific Reports, 2024)

Key:
Biotinylated IL-4Rα = molecular target: T1, Biotinylated IL-4Rα (Homo sapiens (assumed), UniProt P24394, biotin); assay: SPR; iMSPR-ProX; biotinylated IL-4Rα immobilised on the sensor chip (A-Dex100) at 169.7 RU; Dup-scFv at 1.56-100 nM; regeneration with 10 mM glycine-HCl pH 1.5; 1:1 kinetic binding model; conditions: both partners purified
T1 construct: IL-4 receptor alpha (IL-4Rα); Probably a soluble extracellular construct of the human receptor (surmised); also called IL-4Ra; immobilized IL-4Rα
T1 sequence (P24394 26-825): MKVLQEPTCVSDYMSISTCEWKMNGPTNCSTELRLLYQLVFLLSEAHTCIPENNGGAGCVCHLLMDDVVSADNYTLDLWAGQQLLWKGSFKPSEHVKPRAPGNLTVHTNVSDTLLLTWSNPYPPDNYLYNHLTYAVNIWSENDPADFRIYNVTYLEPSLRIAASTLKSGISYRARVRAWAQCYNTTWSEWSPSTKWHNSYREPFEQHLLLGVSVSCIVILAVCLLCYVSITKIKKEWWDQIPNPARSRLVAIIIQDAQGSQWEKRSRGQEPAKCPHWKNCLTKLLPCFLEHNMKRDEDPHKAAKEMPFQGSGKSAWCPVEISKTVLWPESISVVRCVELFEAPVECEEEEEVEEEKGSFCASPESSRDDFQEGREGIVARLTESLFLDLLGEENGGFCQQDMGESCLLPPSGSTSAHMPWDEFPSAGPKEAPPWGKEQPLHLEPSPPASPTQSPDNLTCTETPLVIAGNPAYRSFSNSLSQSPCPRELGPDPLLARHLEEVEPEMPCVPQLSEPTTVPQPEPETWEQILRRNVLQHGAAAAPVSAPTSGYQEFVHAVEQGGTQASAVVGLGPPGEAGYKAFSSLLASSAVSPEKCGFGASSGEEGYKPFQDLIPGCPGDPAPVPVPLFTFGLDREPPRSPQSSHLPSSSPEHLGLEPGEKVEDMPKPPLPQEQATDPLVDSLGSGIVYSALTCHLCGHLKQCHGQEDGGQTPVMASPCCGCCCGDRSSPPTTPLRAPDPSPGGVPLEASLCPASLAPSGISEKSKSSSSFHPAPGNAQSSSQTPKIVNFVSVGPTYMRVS

[1] = molecular target: T2, Human IL-4Rα overexpressed on HEK293T cells (Homo sapiens (Human)., UniProt P24394); assay: flow cytometry on cells; human IL-4Rα-overexpressing HEK293T cells, 2x10^5 cells/tube in PBS; seven-point curve; Dup-scFv detected with anti-6xHIS antibody and Alexa Fluor-647 anti-mouse IgG, dupilumab with Alexa Fluor-647 anti-human IgG; fitted in GraphPad Prism 8; conditions: one partner purified
T2 construct: IL-4 receptor alpha (IL-4Rα), human, overexpressed on HEK293T cells; also called IL-4Ra; IL-4 receptor alpha; source: HEK293T, lentiviral transduced (IL4R-EGFP), on cells
T2 sequence (P24394 26-825): as above

[2] = molecular target: T2, Human IL-4Rα overexpressed on HEK293T …; assay: cell-based or functional assay

| Kd (Biotinylated IL-4Rα) | EC50 [1] | IL-4-induced CCL26 mRNA (qPCR; more than 3000-fold with IL-4 alone) in HNECs with Dup-scFv 20 μg/ml on the apical side [2] | IL-4-induced CCL26 mRNA (qPCR; more than 3000-fold with IL-4 alone) in HNECs with dupilumab 100 μg/ml on the apical side [2] | Binder |
| --- | --- | --- | --- | --- |
| 0.476 nM | 17.3 nM | 1790 fold | – | Dup-scFv with HDEL (single-chain variable fragment of dupilumab produced by Nicotiana benthamiana) (scFv, V domains shown, VH region of dupilumab; linker, printed as (GGGGS)4 / 4 x G4S; VL region of dupilumab; The form without HDEL is GenBank PP711327; also called dupilumab-scFv; source: N. benthamiana leaves, Agrobacterium-mediated transient expression with p19, purified (Ni-NTA); not shown: His6, C-terminal, kept) VH: EVQLVESGGGLEQPGGSLRLSCAGSGFTFRDYAMTWVRQAPGKGLEWVSSISGSGGNTYYADSVKGRFTISRDNSKNTLYLQMNSLRAEDTAVYYCAKDRLSITIRPRYYGLDVWGQGTTVTVSS VL: DIVMTQSPLSLPVTPGEPASISCRSSQSLLYSIGYNYLDWYLQKSGQSPQLLIYLGSNRASGVPDRFSGSGSGTDFTLKISRVEAEDVGFYYCMQALQTPYTFGQGTKLEIK |
| 0.133 nM | 1.02 nM | – | 2200 fold | Dupilumab (antibody, V domains shown, heavy chain of dupilumab (IgG4); light chain of dupilumab; IgG4 subclass monoclonal antibody (developed by Regeneron/Sanofi)) VH: EVQLVESGGGLEQPGGSLRLSCAGSGFTFRDYAMTWVRQAPGKGLEWVSSISGSGGNTYYADSVKGRFTISRDNSKNTLYLQMNSLRAEDTAVYYCAKDRLSITIRPRYYGLDVWGQGTTVTVSS VL: DIVMTQSPLSLPVTPGEPASISCRSSQSLLYSIGYNYLDWYLQKSGQSPQLLIYLGSNRASGVPDRFSGSGSGTDFTLKISRVEAEDVGFYYCMQALQTPYTFGQGTKLEIK |
